Experimental data reported in US8871276B2, “Beta-casein assemblies for mucosal delivery of therapeutic bioactive agents” (Technion Research and Development Foundation Ltd., priority 2008, dated 2014).

Tests used:
Assay type in all cases: physicochemical
[1] = Small angle X-ray scattering (SAXS) of micelles; settings: 1 wt % β-casein, empty or loaded 1:8 protein:celecoxib, pH ~7
[2] = Storage stability / appearance of suspensions and lyophilized powder; settings: stored at 4 °C, neutral pH
Description: Bovine β-casein (>90%; Sigma-Aldrich) was dissolved in pH 7.0 hepes buffer containing 200 mM hepes (MP Biomedicals), 10 mM MgCl2 (Sigma-Aldrich), 20 mM EGTA (Sigma-Aldrich) and 10 mM NaCl (Loba Chemie), and was placed over-night at 4° C. under stirring. The protein solutions were prepared at concentrations ranging from 0.5 to 2 wt % (0.21 to 0.83 mM respectively), and were filtered through a porous membrane of 0.45 μm to avoid large protein aggregates. […] Stirring continued for 30 minutes in room temperature. […] The specimens remained stable i.e., no precipitation was observed, for at least 3 weeks at 4° C.
Protein and protein-drug solutions were lyophilized by freezing in liquid nitrogen followed by drying in a Christ Alpha 1-4 lyophilizer for 24 hours. The specimens were stored in 4° C. until re-suspension in hepes buffer, back to the original concentration (0.5 wt % or 2 wt %), or to a higher concentration of 5 wt %. Re-suspension was performed by weighing the powder, adding a measured amount of buffer and stirring for 30 minutes in room temperature.
The lifetime of the drug-loaded complexes increased to at least 3 weeks at the same temperature. Stability of the assemblies remains when they were transferred to room temperatures. […] This process provided increased stability of the loaded micelles in a dry powder form, for at least 6 months.

[3] = Dynamic light scattering (DLS) size distribution
Description: DLS and Zeta potential measurements performed on a combined DLS and zeta potential analyzer (Nicomp 380 ZLS zeta potential/particle sizer, USA), at 25° C. were performed for size distribution and electrostatics characterization. For DLS measurements the scattered light intensity was detected with an Avalanche Photo Diode (APD) detector, used at a fixed angle of 90°. Laser wavelength was 658 nm, operating at 90 mW. Mono- bi- or tri-modal distributions were calculated from the scattered light intensity fluctuations, by Nicomp™ cumulants analysis of the intensity autocorrelation function. Zeta potential measurements were performed in triplicate.

[4] = Density measurements of β-casein solutions (density meter DMA 5000); settings: 20 mg/ml β-casein, pH 2.6, lactic acid solution
Description: The specific gravity of the solvents and the protein solutions was measured by a density meter DMA 5000 from Anton-Paar at various temperatures. These measurements enabled an accuracy of six digits.
Density measurements of the β-casein solutions at pH 2.6 as a function of temperature are summarized in Table 1 Density measurements were performed using a density meter DMA 5000 from Anton-Paar, reaching an accuracy of six digits.

[5] = 0.5% β-casein, empty or loaded 1:8 celecoxib, pH ~7

B1: β-casein: bovine β-casein self-assembled into unloaded micelles in acidic or neutral buffer (protein, UniProt P02666 16-224, looked up)
Beta-casein: RELEELNVPGEIVESLSSSEESITRINKKIEKFQSEEQQQTEDELQDKIHPFAQTQSLVYPFPGPIPNSLPQNIPPLTQTPVVVPPFLQPEVMGVSKVKEAMAPKHKEMPFPKYPVEPFTESQSLTLTDVENLHLPLPLLQSWMHQPHQPLPPTVMFPPQSVLSLSQSKVLPVPQKAVPYPQRDMPIQAFLLYQEPVLGPVRGPFPIIV
modifications: self-assembled micelles
notes: bovine β-casein self-assembled into unloaded micelles in acidic or neutral buffer
Density [1]: 1.23 g/mL | Lifetime of empty micelles on storage [2]: degraded within a few days | Micelle diameter (DLS), after lyophilization and re-suspension [3, 5]: 21 nm | Micelle diameter (DLS), before drying [3, 5]: 19 nm | Micelle diameter (DLS) ([3]; 2 wt % β-casein, empty or loaded 1:1 budesonide, hepes buffer pH 7.0): 19.6±3.4 nm | Solution density ([4]; 4 °C): 1.01 g/mL | Solution density ([4]; 16 °C): 1.009 g/mL | Solution density ([4]; 25 °C): 1.007 g/mL | Solution density ([4]; 40 °C): 1.002 g/mL
